Source: patent US20240058465A1 (SUTRO BIOPHARMA, published 2024)

Legend:
[1] = biological target: T1, human ROR1 (hROR1) (human, UniProt Q01973 30-937); assay: cell-based or functional assay
[2] = biological target: T2, human ROR1 Frizzled domain (hROR1-Fz) (human, UniProt Q01973 165-305); assay: SPR Biacore, IgG on anti-Fc, ROR1-Fz analyte
T2 construct: Acro Biosystems, made in HEK293
Method in brief: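 Test antibodies captured on an anti-Fc surface (CM5 chip), then analyte bound for 180 s with 600 s dissociation at 25° C in HBS-EP+ buffer at 50 μL/min. Human ROR1 ECD, Frizzled or Kringle domain used as analyte; regeneration with 10 mM glycine pH 2.0.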

[3] = biological target: ROR1 (recombinant protein coated on the ELISA plate, Example 11) (UniProt Q01973 30-403, limits assumed); assay: ELISA: ROR1 coated on the plate, antibody titrated 3-fold from 5 ug/mL, HRP anti-human Fc, chemiluminescence (ELISA RLU)
Excerpt: The anti-ROR1 lead antibodies were discovered from a Fab ribosome display library that contained CDR H1, H2, and H3 diversity and utilized a constant LC (trastuzumab LC). In this example, the HCs of the lead antibodies were co-expressed with trastuzumab LC or different LCs derived from anti-CD3 antibodies: hOKT3-LC1, hSP34-LC3, hUCHT1-LC3 to determine if the anti-ROR1 HC leads would retain binding to ROR1 when assembled with anti-CD3 LCs. […] The antibodies were then purified and tested for ROR1 binding by ELISA. The ELISA assay was carried out as follows. Briefly, 2 μg/mL of ROR1 was coated to a 384-well polystyrene plate for 1 hr at 30° C. in 0.1 M bicarbonate pH8.9 buffer before it was washed and blocked with 2% BSA in PBST (PBS, 0.1% Tween20) for 1 hr. Antibody variants were diluted to 5 μg/mL and further serially diluted 3-fold before 30 μL was applied to the ELISA plates for binding ([…] Antibody binding was detected via HRP-conjugated anti-human Fc antibodies (Jackson Immunoresearch) and detection with SuperSignal ELISA Pico Chemiluminescent Substrate (Pierce).

[4] = biological target: T3, human ROR1 Frizzled domain (Fz, residues 165-305) with C-terminal HIS6 tag (human, UniProt Q01973 165-305); assay: SPR (Biacore T200), IgG captured by anti-human Fc, ROR1 Fz as analyte, 1:1 Langmuir fit
T3 construct: Made in HEK293 cells and purified (Acro Biosystems); also called ROR1 Fz; hROR1-Fz
Description: (§1) The data was fit with the Biacore™ T200 Evaluation software, using a 1-1 Langmuir binding model. KD (affinity, nM) was determined as a ratio of the kinetic rate constants calculated from the fits of the association and dissociation phases.

[5] = biological target: T4, human ROR1 frizzled domain (hROR1-Fz) (human, UniProt Q01973 165-305); assay: SPR kinetic screen (Biacore), antibody captured as ligand (Fc=3-1), sample ROR1 Fz, 25 C, 1:1 binding model; fit to a low response of at most about 2 on the response axis; Table 7 lists this pair as 'Not detected'
T4 construct: From Acro Biosystems

[6] = biological target: T5, human ROR1 extracellular domain (human, UniProt Q01973 30-406); assay: SPR (Biacore T200), IgG captured by anti-human Fc, ROR1 ECD as analyte, 1:1 Langmuir fit
T5 construct: Bought recombinant protein (Acro Biosystems); also called ROR1 ECD; hROR1
Description: as §1

[7] = biological target: T6, human ROR1 Immunoglobulin domain (Ig, residues 39-151) with C-terminal HIS6 tag (human, UniProt Q01973 39-151); assay: SPR kinetic screen (Biacore), antibody captured as ligand (Fc=2-1), sample printed as ROR1 Ig, 25 C, 1:1 binding model
T6 construct: Made in HEK293 cells and purified (Acro Biosystems)

[8] = biological target: T6, human ROR1 Immunoglobulin domain (Ig, …); assay: SPR kinetic screen (Biacore), antibody captured as ligand (Fc=4-1), sample printed as ROR1 Ig, 25 C, 1:1 binding model; fit to a flat sensorgram
[9] = biological target: T6, human ROR1 Immunoglobulin domain (Ig, …); assay: SPR kinetic screen (Biacore), antibody captured as ligand (Fc=2-1), sample printed as ROR1 Ig, 25 C, 1:1 binding model; remark: listed apart in the source
[10] = biological target: T1, human ROR1 (hROR1); assay: flow cytometry, HCT116-hROR1 cells; NSB = non-saturating binding

B1: SRP1944-A07 (with trastuzumab LC) (antibody, IgG1, V domains shown)
VH: EVQLVESGGGLVQPGGSLRLSCAASGFNITGYYIHWVRQAPGKGLEWVGYISPNSGSTYYADSVKGRFTISADTSKNTAYLQMNSLRAEDTAVYYCARDSRRYVRPFDYWGQGTLVTVSS
VL: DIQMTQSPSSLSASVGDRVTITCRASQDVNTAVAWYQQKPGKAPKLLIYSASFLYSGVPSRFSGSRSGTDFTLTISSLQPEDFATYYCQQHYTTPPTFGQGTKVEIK
notes: Parent of SRP2194; His/FLAG-tagged IgG1, cell-free; also called Antibody 126
- Mino Nb-PBD, drug-conjugated 2° antibody Cell Killing EC50 [1]: 0.01 nM
- Kd [2]: 24.5 nM
- koff [2]: 0.01 s⁻¹
- kon [2]: 559000 M⁻¹ s⁻¹

B2: 1944-A07 HC co-expressed with hSP34-LC3 light chain (antibody, IgG1, V domains shown)
VH: EVQLVESGGGLVQPGGSLRLSCAASGFNITGYYIHWVRQAPGKGLEWVGYISPNSGSTYYADSVKGRFTISADTSKNTAYLQMNSLRAEDTAVYYCARDSRRYVRPFDYWGQGTLVTVSS
VL: QTVVTQEPSLTVSPGGTVTLTCGSSTGAVTSGYYPNWFQQKPGQAPRGLIGGTKFLAPGTPARFSGSLLGGKAALTLSGVQPEDEAEYYCALWYSNRWVFGGGTQLTVTG
notes: Only variable domains are tied to this pairing
- EC50 (read off the curve) [3]: ~0.05 µg/mL

B3: 1944-A07 HC with hUCHT1-LC3 light chain (antibody, V domains shown)
VH: EVQLVESGGGLVQPGGSLRLSCAASGFNITGYYIHWVRQAPGKGLEWVGYISPNSGSTYYADSVKGRFTISADTSKNTAYLQMNSLRAEDTAVYYCARDSRRYVRPFDYWGQGTLVTVSS
VL: DIQMTQSPSTLSASVGDRVTITCRASQDIRNYLNWYQQKPGKAPKLLIYYTSRLHSGVPSRFSGSGSGTEYTLTISSLQPDDFATYYCQQGNTLPWTFGGGTKVEIK
notes: IgG with an anti-CD3 light chain
- Kd [4]: 64.1 nM
- koff [4]: 0.119 s⁻¹
- kon [4]: 1.85e+06 M⁻¹ s⁻¹

B4: 1944-A07 HC with Trastuzumab LC (antibody, IgG1, V domains shown)
VH: EVQLVESGGGLVQPGGSLRLSCAASGFNITGYYIHWVRQAPGKGLEWVGYISPNSGSTYYADSVKGRFTISADTSKNTAYLQMNSLRAEDTAVYYCARDSRRYVRPFDYWGQGTLVTVSS
VL: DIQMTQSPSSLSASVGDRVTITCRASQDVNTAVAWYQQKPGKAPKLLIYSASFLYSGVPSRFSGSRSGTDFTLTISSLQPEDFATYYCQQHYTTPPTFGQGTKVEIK
notes: Screening constructs are described as His- and FLAG-tagged IgG1; also called SRP1944-A07
- Kd [4]: 9.59 nM
- koff [4]: 0.029 s⁻¹
- kon [4]: 3.02e+06 M⁻¹ s⁻¹
- EC50 (read off the curve) [3]: ~0.02 µg/mL

B5: 1944-A07 HC co-expressed with hOKT3-LC1 light chain (antibody, V domains shown)
VH: EVQLVESGGGLVQPGGSLRLSCAASGFNITGYYIHWVRQAPGKGLEWVGYISPNSGSTYYADSVKGRFTISADTSKNTAYLQMNSLRAEDTAVYYCARDSRRYVRPFDYWGQGTLVTVSS
VL: DIQMTQSPSSLSASVGDRVTITCSASSSVSYMNWYQQKPGKAPKRLIYDTSKLASGVPSRFSGSGSGTEYTLTISSLQPEDFATYYCQQWSSNPFTFGQGTKLEIK
notes: as for B2
- Kd [5]: 17.9 nM
- koff [5]: 0.0137 s⁻¹
- kon [5]: 763000 M⁻¹ s⁻¹
- EC50 (read off the curve) [3]: ~0.05 µg/mL

B6: 1944-A07 HC co-expressed with hUCHT1-LC3 light chain (antibody, V domains shown)
VH: EVQLVESGGGLVQPGGSLRLSCAASGFNITGYYIHWVRQAPGKGLEWVGYISPNSGSTYYADSVKGRFTISADTSKNTAYLQMNSLRAEDTAVYYCARDSRRYVRPFDYWGQGTLVTVSS
VL: DIQMTQSPSTLSASVGDRVTITCRASQDIRNYLNWYQQKPGKAPKLLIYYTSRLHSGVPSRFSGSGSGTEYTLTISSLQPDDFATYYCQQGNTLPWTFGGGTKVEIK
notes: as for B2
- EC50 (read off the curve) [3]: ~0.02 µg/mL

B7: 1944-A07 HC with hSP34-LC3 light chain (antibody, V domains shown)
VH: EVQLVESGGGLVQPGGSLRLSCAASGFNITGYYIHWVRQAPGKGLEWVGYISPNSGSTYYADSVKGRFTISADTSKNTAYLQMNSLRAEDTAVYYCARDSRRYVRPFDYWGQGTLVTVSS
VL: QTVVTQEPSLTVSPGGTVTLTCGSSTGAVTSGYYPNWFQQKPGQAPRGLIGGTKFLAPGTPARFSGSLLGGKAALTLSGVQPEDEAEYYCALWYSNRWVFGGGTQLTVTG
notes: as for B3
- Kd [4]: 6.35 nM
- koff [4]: 0.00228 s⁻¹
- kon [4]: 360000 M⁻¹ s⁻¹

B8: 1987-C05 HC with Trastuzumab LC (antibody, V domains shown)
VH: EVQLVESGGGLVQPGGSLRLSCAASGFNISDYDIHWVRQAPGKGLEWVGGIDPDDGSTDYADSVKGRFTISADTSKNTAYLQMNSLRAEDTAVYYCARDYGVFDYWGQGTLVTVSS
VL: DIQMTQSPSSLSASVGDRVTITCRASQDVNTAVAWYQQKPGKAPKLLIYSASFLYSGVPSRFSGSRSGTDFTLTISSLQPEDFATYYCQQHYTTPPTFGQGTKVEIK
notes: also called 1987-C05 HC w/trstmb LC (parent IgG); SRP1987-C05
- Kd [6]: 0.277 nM
- koff [6]: 0.000673 s⁻¹
- kon [6]: 2.43e+06 M⁻¹ s⁻¹
- EC50 (read off the curve) [3]: ~0.04 µg/mL
- Kd [7]: 0.00859 nM
- koff [7]: 0.000705 s⁻¹
- kon [7]: 8.2e+07 M⁻¹ s⁻¹

B9: 1987-C05 HC co-expressed with hSP34-LC3 light chain (antibody, V domains shown)
VH: EVQLVESGGGLVQPGGSLRLSCAASGFNISDYDIHWVRQAPGKGLEWVGGIDPDDGSTDYADSVKGRFTISADTSKNTAYLQMNSLRAEDTAVYYCARDYGVFDYWGQGTLVTVSS
VL: QTVVTQEPSLTVSPGGTVTLTCGSSTGAVTSGYYPNWFQQKPGQAPRGLIGGTKFLAPGTPARFSGSLLGGKAALTLSGVQPEDEAEYYCALWYSNRWVFGGGTQLTVTG
notes: Only variable domains are tied to this pairing; also called 1987-C05 w/hSP34 LC3; 1987-C05 variant
- Kd [8]: 34.1 nM
- koff [8]: 0.00133 s⁻¹
- kon [8]: 38900 M⁻¹ s⁻¹

B10: 1987-C05 HC co-expressed with hUCHT1-LC3 light chain (antibody, V domains shown)
VH: EVQLVESGGGLVQPGGSLRLSCAASGFNISDYDIHWVRQAPGKGLEWVGGIDPDDGSTDYADSVKGRFTISADTSKNTAYLQMNSLRAEDTAVYYCARDYGVFDYWGQGTLVTVSS
VL: DIQMTQSPSTLSASVGDRVTITCRASQDIRNYLNWYQQKPGKAPKLLIYYTSRLHSGVPSRFSGSGSGTEYTLTISSLQPDDFATYYCQQGNTLPWTFGGGTKVEIK
notes: Only variable domains are tied to this pairing; also called 1987-C05 w/hUCHT1 LC3; 1987-C05 variant
- Kd [9]: 2.6 nM
- koff [9]: 0.133 s⁻¹
- kon [9]: 5.11e+07 M⁻¹ s⁻¹
- EC50 (read off the curve) [3]: ~0.03 µg/mL

B11: 1987-C05 HC with hUCHT1-LC3 light chain (antibody, V domains shown)
VH: EVQLVESGGGLVQPGGSLRLSCAASGFNISDYDIHWVRQAPGKGLEWVGGIDPDDGSTDYADSVKGRFTISADTSKNTAYLQMNSLRAEDTAVYYCARDYGVFDYWGQGTLVTVSS
VL: DIQMTQSPSTLSASVGDRVTITCRASQDIRNYLNWYQQKPGKAPKLLIYYTSRLHSGVPSRFSGSGSGTEYTLTISSLQPDDFATYYCQQGNTLPWTFGGGTKVEIK
notes: IgG with an anti-CD3 light chain; also called 1987-C05 HC w/hUCHT1 LC3
- Kd [6]: 1.14 nM
- koff [6]: 0.000645 s⁻¹
- kon [6]: 566000 M⁻¹ s⁻¹

B12: SRP2193-A08 (antibody, IgG1, V domains shown)
VH: EVQLVESGGGLVQPGGSLRLSCAASGFNIIDSYIHWVRQAPGKGLEWVGAIDPNAGSTVYADSVRGRFTISADTSKNTAYIQMNSLRAEDTAVYYCARSRWFRVLWSYVFDYWGQGTLVTVSS
VL: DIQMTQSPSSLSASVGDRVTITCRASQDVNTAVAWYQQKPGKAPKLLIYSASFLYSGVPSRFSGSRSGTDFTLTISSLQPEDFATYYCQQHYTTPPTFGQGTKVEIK
notes: His/FLAG-tagged IgG1, cell-free; also called Antibody 112
- binding result [10]: binds

B13: SRP2193-A10 (antibody, IgG1, V domains shown)
VH: EVQLVESGGGLVQPGGSLRLSCAASGFNIGDYYIHWVRQAPGKGLEWVGAIDPKSGYTVYADSVKGRFTISADTSKNTAYLQMNSLRAEDTAVYYCARSRWFRVLWSYVFDYWGQGTLVTVSS
VL: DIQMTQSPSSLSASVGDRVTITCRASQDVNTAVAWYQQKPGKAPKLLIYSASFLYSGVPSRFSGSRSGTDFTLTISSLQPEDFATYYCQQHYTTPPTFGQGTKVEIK
notes: His/FLAG-tagged IgG1, cell-free; also called Antibody 95
- binding result [10]: binds

B14: SRP2193-A09 (antibody, IgG1, V domains shown)
VH: EVQLVESGGGLVQPGGSLRLSCAASGFNIGKHHIHWVRQAPGKGLEWVGVIDPKGGSTVYADSVKGRFTISADTSKNTAYLQMNSLRAEDTAVYYCARSRWSRVLWSYVFDYWGQGTLVTVSS
VL: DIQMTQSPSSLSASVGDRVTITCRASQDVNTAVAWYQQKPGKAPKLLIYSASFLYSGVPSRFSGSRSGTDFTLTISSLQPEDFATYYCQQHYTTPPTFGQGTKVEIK
notes: His/FLAG-tagged IgG1, cell-free; also called Antibody 94
- binding result [10]: binds

B15: SRP2193-A11 (antibody, IgG1, V domains shown)
VH: EVQLVESGGGLVQPGGSLRLSCAASGFNIDAYYIHWVRQAPGKGLEWVGAIDPKSGSTVYADSVKGRFTTSADTSKNTAYLQMNSLRAEDTAVYYCARSRWFRVLWSYVFDYWGQGTLVTVSS
VL: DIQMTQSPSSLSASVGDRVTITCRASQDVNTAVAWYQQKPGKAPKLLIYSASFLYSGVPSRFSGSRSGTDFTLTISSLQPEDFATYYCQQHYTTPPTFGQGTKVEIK
notes: His/FLAG-tagged IgG1, cell-free; also called Antibody 110
- binding result [10]: binds
